To fix the notation:
B1: Chol-Ac-K(PEG4)DDG-RSVP32-trimer (peptide)
peptide: Ac-[dK][PEG4′][dD][dD]GG[dE][dC][dV][dN][dR][dP][dE][dW][dL][dL][dD][dW][dC]G[dT]-NH2
modifications: disulfide 8-19; also: Chol, attachment not given here, trimer, linkage not given here
B2: Ac-KG-RSVP20 (peptide)
peptide: Ac-[dK]GG[dA][dC][dR][dN][dE][dP][dH][dW][dL][dL][dD][dW][dC][dA][dA]-NH2
modifications: disulfide 5-16
SMILES: CC(=O)N[C@H](CCCCN)C(=O)NCC(=O)NCC(=O)N[C@H](C)C(=O)N[C@@H]1CSSC[C@H](C(=O)N[C@H](C)C(=O)N[C@H](C)C(N)=O)NC(=O)[C@@H](Cc2c[nH]c3ccccc23)NC(=O)[C@@H](CC(=O)O)NC(=O)[C@@H](CC(C)C)NC(=O)[C@@H](CC(C)C)NC(=O)[C@@H](Cc2c[nH]c3ccccc23)NC(=O)[C@@H](Cc2c[nH]cn2)NC(=O)[C@H]2CCCN2C(=O)[C@@H](CCC(=O)O)NC(=O)[C@@H](CC(N)=O)NC(=O)[C@@H](CCCNC(=N)N)NC1=O
B3: T108 (peptide)
peptide: YDPLVFPSDEFDASISQVNEKINQSLAFIRKSDEL
notes: domain: 35-residue RSV C-peptide T108; also called RSV C-peptide T108
B4: Ac-K(PEG6)-RSVP21-trimer (peptide)
peptide: Ac-KG[dA][dC][dT][dN][dR][dA][dE][dW][dL][dI][dD][dW][dC][dA][dA]-NH2
modifications: disulfide 4-15 (inferred); not fully specified (residue 1); printed as Ac-K(PEG6)-RSVP21-trimer; also: PEG6 after N-terminal K (side chain or backbone unclear), trimer
B5: Ac-K(PEG6)-RSVP20-trimer (peptide)
peptide: Ac-KG[dA][dC][dR][dN][dE][dP][dH][dW][dL][dL][dD][dW][dC][dA][dA]-NH2
modifications: disulfide 4-15 (inferred); not fully specified (residue 1); printed as Ac-K(PEG6)-RSVP20-trimer; also: PEG6 after N-terminal K (side chain or backbone unclear), trimer

Results on 28 molecules are retold here after patent US20180280520A1 (NAVIGEN, published 2018).

Where a chain is given by its changes, count along the chain named. “And” between values parts separate entries of the source, which are not always exact repeats. Equal entries are not always repeated. Positions of bridges follow the written chain, without caps; N, C: chain ends. Non-standard residues stand in square brackets, D forms with d. Primed or numbered codes have the meaning given here. No end group written: not given here. PEG4′ = not defined here; PEG6′ = not defined here; PEG8′ = not defined here

The target in the first assay is RSV F protein (RSV-A) (respiratory syncytial virus, RSV-A) (UniProt P03420). The assay can be described thus: cell-based or functional assay.
Chain of RSV F protein (RSV-A) (respiratory syncytial virus, RSV-A) (P03420 26-574): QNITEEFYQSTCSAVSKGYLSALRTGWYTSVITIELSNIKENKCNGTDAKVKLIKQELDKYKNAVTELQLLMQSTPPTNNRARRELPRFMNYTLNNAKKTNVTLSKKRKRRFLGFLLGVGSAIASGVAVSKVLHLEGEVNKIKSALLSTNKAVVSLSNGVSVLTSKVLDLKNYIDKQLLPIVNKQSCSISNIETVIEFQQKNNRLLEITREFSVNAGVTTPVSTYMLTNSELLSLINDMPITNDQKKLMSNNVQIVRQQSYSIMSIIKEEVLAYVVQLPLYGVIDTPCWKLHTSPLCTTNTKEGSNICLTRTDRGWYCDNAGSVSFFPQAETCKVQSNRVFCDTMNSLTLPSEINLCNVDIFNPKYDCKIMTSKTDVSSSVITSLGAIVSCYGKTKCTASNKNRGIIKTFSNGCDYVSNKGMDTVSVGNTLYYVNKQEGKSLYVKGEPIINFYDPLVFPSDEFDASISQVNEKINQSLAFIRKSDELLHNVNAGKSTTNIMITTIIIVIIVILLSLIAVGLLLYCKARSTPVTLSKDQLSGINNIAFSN
For the molecule Ac-G[dE][dC][dV][dN][dR][dP][dE][dW][dL][dL][dD][dW][dC]G[dT]G[dD][dD][PEG4′][dK]-NH2 (disulfide 3-14; also: cholesterol conjugate, trimer) [Chol-Ac-RSVP32-GDD(PEG4)K-trimer], the IC50, syncytia reduction assay is 37 nM and 52 nM and 95 nM.

As for Ac-[dK][PEG8′]GG[dE][dC][dV][dN][dR][dP][dE][dW][dL][dL][dD][dW][dC]G[dT]G[dD][dD]-NH2 (disulfide 6-17; also: cholesterol conjugate, trimer) [Chol-Ac-K(PEG8)G-RSVP32-GDD-trimer], the IC50, syncytia reduction assay was 24 nM and 8 nM.

GEVCRPEWLLDWCGT (D-peptide; N-terminal acetyl; C-terminal amide) [RSVP32 with shortened disulfide] displayed a potency of 360 nM and a potency, fold decrease compared to RSVP32 of 14.4 fold.

With Ac-[dK][PEG6′][dD][dD]G[dA][dE][dC][dV][dN][dR][dP][dE][dW][dL][dL][dD][dW][dC]G[dT]-NH2 (disulfide 8-19; also: cholesterol conjugate, trimer) [Chol-Ac-K(PEG6)DDG-RSVP31-trimer], the IC50, syncytia reduction assay is 65 nM and 54 nM and 24 nM.

For KKGAAAARWFELPEPEWWG (not fully specified; all D-amino acids; C-terminal PEG6 joined to the hub) [KKGAAAA-RSVP7-G(PEG6)-Tricasso], the IC50, syncytia reduction assay was 13900 nM and 7400 nM.

As for Ac-[dK][PEG6′][dD][dD]G[dS][dA][dC][dV][dN][dR][dP][dE][dW][dL][dL][dD][dW][dC]G[dT]-NH2 (disulfide 8-19; also: cholesterol conjugate, trimer) [Chol-Ac-K(PEG6)DDG-RSVP29-trimer], the IC50, syncytia reduction assay was 120 nM and 100 nM.

Turning to GECVNQPEWLLDWCGT (D-peptide; N-terminal acetyl; C-terminal amide) [RSVP32 with Gln at position 6], the potency stood at 53 nM and the potency, fold decrease compared to RSVP32 came to 2 fold.

Consider Ac-[dK][PEG6′]G[dA][dC][dR][dN][dE][dP][dH][dW][dL][dL][dD][dW][dC][dA][dA]-NH2 (disulfide 5-16; also: cholesterol (Chol) conjugate, site not given here, trimer) [Chol-Ac-K(PEG6)-RSVP20-trimer], for which the IC50, syncytia reduction assay worked out at 7900 nM.

Take B1: the IC50, syncytia reduction assay is 28 nM and 16 nM and 11 nM.

The molecule Ac-[dK][PEG6′][dD][dD]G[dS][dM][dC][dV][dN][dR][dP][dE][dW][dL][dL][dD][dW][dC]G[dT]-NH2 (disulfide 8-19; also: trimer, linkage not given here) [Ac-K(PEG6)DDG-RSVP24-trimer] had an IC50, syncytia reduction assay of 5500 nM.

B2 yielded an IC50, syncytia reduction assay of 673000 nM.

Molecule Ac-[dS][dM][dC][dV][dN][dR][dP][dE][dW][dL][dL][dD][dW][dC]G[dT]G[dD][dD][PEG6′][dK]-NH2 (disulfide 3-14; also: cholesterol conjugate, trimer) [Chol-Ac-RSVP24-GDD(PEG6)K-trimer] showed an IC50, syncytia reduction assay of 97 nM.

Ac-[dK][PEG6′][dD][dD]G[dH][dA][dC][dV][dN][dR][dP][dE][dW][dL][dL][dD][dW][dC][dD][dH]-NH2 (disulfide 8-19; also: cholesterol conjugate, trimer) [Chol-Ac-K(PEG6)DDG-RSVP28-trimer] displayed an IC50, syncytia reduction assay of 240 nM.

Regarding Ac-[dK][PEG6′]G[dH][dA][dC][dV][dN][dR][dP][dE][dW][dL][dL][dD][dW][dC]G[dR]G[dR][dR]-NH2 (disulfide 6-17; also: trimer, linkage not given here) [Ac-K(PEG6)G-RSVP26-GRR-trimer], the IC50, syncytia reduction assay came to 5500 nM.

As to Ac-[dK][PEG6′][dD][dD]G[dH][dE][dC][dV][dN][dR][dP][dE][dW][dL][dL][dD][dW][dC][dE][dH]-NH2 (disulfide 8-19; also: cholesterol conjugate, trimer) [Chol-Ac-K(PEG6)DDG-RSVP27-trimer], the IC50, syncytia reduction assay is 140 nM and 90 nM and 88 nM.

For Ac-[dK][PEG6′]G[dH][dA][dC][dV][dN][dR][dP][dE][dW][dL][dL][dD][dW][dC]G[dR]G[dR][dR]-NH2 (disulfide 6-17; also: cholesterol conjugate, trimer) [Chol-Ac-K(PEG6)G-RSVP26-GRR-trimer], the IC50, syncytia reduction assay is 490 nM.

With Ac-[dS][dM][dC][dV][dN][dR][dP][dE][dW][dL][dL][dD][dW][dC]G[dT]G[dD][dD][PEG6′][dK]-NH2 (disulfide 3-14; also: trimer, linkage not given here) [Ac-RSVP24-GDD(PEG6)K-trimer], the IC50, syncytia reduction assay was 4600 nM.

Regarding Ac-[dK][PEG6′][dD][dD]G[dH][dA][dC][dV][dN][dR][dP][dE][dW][dL][dL][dD][dW][dC]G[dR]-NH2 (disulfide 8-19; also: cholesterol (Chol) conjugate, site not given here, trimer) [Chol-Ac-K(PEG6)DDG-RSVP26-trimer], the IC50, syncytia reduction assay was found to be 3200 nM.

The target of the next assay is T1, BPEG2-GKG-RSVB-IZN45 Full Mut (respiratory syncytial virus, RSV-B, N-terminal biotinPEG2; C-terminal amide).
T1 construct: also called IZN45_Mut; mutant target
T1 chain: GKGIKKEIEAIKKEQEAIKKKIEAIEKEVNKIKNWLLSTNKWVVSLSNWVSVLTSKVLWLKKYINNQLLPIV
The assay can be described thus: SPR. On the technique in general: In SPR one partner is held on a chip, and binding of the other changes the refractive index at the surface.
Take FDASISQVNEKINQSLAFIRKSDELLHNVNAGKST (also called RSV C-peptide T118) [T118]: the binding result was “no binding”.

B3: the binding result is reported as “no binding”.

The target of the next assay is T1, BPEG2-GKG-RSVB-IZN45 Full Mut. The assay can be described thus: phage ELISA. (In general: In an ELISA, binding on a coated surface is turned into a signal by an enzyme label.)
Consider YDPLVFPSDEFDASISQVNEKINQSLAFIRKSDEL (domain: 35-residue RSV C-peptide T108) [control phage displaying T108], for which the binding result is “no binding”.

The target in a further assay is RSV F protein (RSV-A) (respiratory syncytial virus, RSV-A, UniProt P03420 26-574). The assay can be described thus: cell-based or functional assay.
In the case of KKGRWFELPEPEWWG (not fully specified; all D-amino acids; C-terminal PEG6 joined to the hub) [KKG-RSVP7-G(PEG6)-Tricasso], the “IC50, syncytia reduction assay” value is 4800 nM and 4500 nM.

As to B4, the “IC50, syncytia reduction assay” value turned out to be 65000 nM.

Consider B5, for which the “IC50, syncytia reduction assay” value was 55000 nM and 19000 nM.

Turning to [dK]G[dR][dW][dF][dE][dL][dP][dE][dP][dE][dW][dW]G (not fully specified (C-terminus); printed as KG-RSVP7-G(PEG6)-Tricasso) [KG-RSVP7-G(PEG6)-Tricasso], the “IC50, syncytia reduction assay” value worked out at 18400 nM.

The next assay deals with T2, BPEG2-GKG-RSVB-IZN45 (respiratory syncytial virus, RSV-B, N-terminal biotinPEG2; C-terminal amide).
T2 chain: T1 chain with W35A, W42A, W49G, W59D, K62N
The assay can be described thus: SPR, biotinylated L-IZN45 on NeutrAvidin chip.
A word on the Kd: it is the constant that tells how readily two partners part at equilibrium. Read a high Kd as weaker binding. In the case of FDASISQVNEKINQSLAFIRKSDELLHNVNAGKST (also called RSV C-peptide T118) [T118], the Kd was about 1 nM.

Another assay has as its target T3, IZN45_WT_Bot (N-terminal biotinPEG2; C-terminal amide).
T3 construct: also called BPEG2-GKG-RSVB-IZN45 wt bot
T3 N-trimer mimic monomer (IZ fused to N45, partial groove mutant): T1 chain with W49G, W59D, K62N
The assay can be described thus: phage ELISA of clonal phage, percent bound.
As for SLKYWWMEELPLPKWW [X16-18 phage clone], the binding result is “no binding”.

The target of the next assay is T1, BPEG2-GKG-RSVB-IZN45 Full Mut. The assay can be described thus: phage ELISA of clonal phage, percent bound.
As for SLKYWWMEELPLPKWW [X16-18 phage clone], the binding result is “no binding”.

As for GACKIHDLFHWHDCAA (disulfide (positions not given here); not fully specified (bridges), also called CXC10C-119) [CX10C-119 phage clone], the binding result is reported as “no binding”.

Take SKVILPEPFWWP [X12-47 phage clone]: the binding result is given as “no binding”.
